Measurements reported in article doi:10.1101/2024.07.19.604350.

Legend:
[1] = target: 9C2 (Vγ5Vδ1) γδ TCR/CD3 complex, full length (human) (UniProt B7Z8K6); test: cryo-EM structure
[2] = target: G115 (Vγ9Vδ2) γδ TCR/CD3 complex, full length (human) (UniProt A0JD36); test: cryo-EM structure
Sequence of UniProt A0JD36 (A0JD36 whole entry, looked up, stated change not applied, one chain of several): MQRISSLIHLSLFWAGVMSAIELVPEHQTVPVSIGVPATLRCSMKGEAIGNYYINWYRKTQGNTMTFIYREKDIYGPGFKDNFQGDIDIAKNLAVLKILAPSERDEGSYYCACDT

| stoichiometry N [1] | stoichiometry N [2] | Substance |
| --- | --- | --- |
| 2 | – | 9C2 (Vγ5Vδ1) γδ TCR/CD3 complex, full length (from UniProt B7Z8K6;P0CF51;P07766;P09693;P04234;P20963) |
| – | 2 | OKT3 Fab |
